Source: patent US20260055186A1 (REPERTOIRE IMMUNE MEDICINES, published 2026)
Read-outs that look alike come from different tables or passages of the source.

Legend:
[1] = target: T1, human CD8 on human T cells (human, UniProt P01732 22-235); assay: flow cytometry on human CD8+ T cells, titration
T1 construct: whole, on cells; the antibodies were raised against human CD8 alpha; also called CD8 on human CD8+ T cells; hCD8
Experimental: (§1) The 16 above-referenced humanized 03A01-derived anti-CD8 antibodies were screened for their ability to bind human CD8 by evaluating binding to CD8⁺ T cells. The non-humanized parent (“03-Parent”) and the non-humanized parent comprising a heavy chain D64E liability mutation (“03-Parent-VH-D64E”) were used as controls. […] Cells were washed with 1×phosphate buffered saline (PBS) containing 1 mg/mL bovine serum albumin (PBS/BSA) and then stained with a 1:100 dilution of DyLight650-conjugated anti-human IgG H+L polyclonal antibody (ThermoFisher cat. no. Sa5-10129) in PBS/BSA. Following a 20-30 min incubation at 4° C., the cells were washed once with PBS/BSA, and then resuspended in PBS/BSA for analysis on a FACSCelesta using Diva software (BD Biosciences). The resulting data were analyzed using FlowJo. Data were quantified and reported as Max fluorescence intensity (MFI) of human IgG-Fc. […] Complete replacement of the LCDR1 (antibodies comprising VK4) eliminated binding to the CD8⁺ T cells.
(§2) The binding affinities of five of the above-referenced humanized anti-CD8 antibodies to human CD8 were determined by evaluating binding to CD8 human T cells using the method described above. Binding to human CD8+ T cells was tested at 7 serial 5-fold dilutions of each humanized 03A01 variant (from 50 nM to 3.2 pM). The resulting data were analyzed using FlowJo.

[2] = target: T1, human CD8 on human T cells; assay: flow cytometry on human CD8+ T cells, titration, apparent KD
Experimental: as §1, §2

[3] = target: T2, human CD8α/β (human, UniProt P01732 22-182; P10966 22-170); assay: SPR, antibody captured on Protein A chip, hCD8α/β as analyte
T2 construct: Soluble heterodimer used in SPR and in the Carterra binning (there printed only as CD8α/β); also called hCD8α/β
Experimental: (§3) The binding affinities of six of the humanized anti-CD8 antibodies to human CD8 were also determined by surface plasmon resonance (SPR). Briefly, equilibrium dissociation constants for human CD8α/β were determined using a real-time SPR biosensor using a Protein A Sensor Chip (Cytiva) to capture purified anti-CD8 monoclonal antibodies at a concentration of 0.5 nM. SPR binding studies were performed in a buffer composed of Phosphate buffered saline, pH 7.2 containing 0.05% v/v Surfactant P20 (PBS-P20 buffer). Different concentrations of hCD8α/β prepared in PBS-P20 running buffer (ranging from 500 nM to 7.8 nM, 2-fold dilutions) were injected over the anti-CD8 monoclonal antibody captured surface. Association of hCD8α/β to the captured monoclonal antibody was monitored for 400 seconds and the dissociation of hCD8α/β in PBS-P20 running buffer was monitored for 600 sec. All of the binding kinetics experiments were performed at 25° C. Kinetic association (kₐ) and dissociation (kd) rate constants were determined by fitting the real-time sensorgrams to a 1:1 binding model using Scrubber 2.0c curve fitting software.

[4] = target: T1, human CD8 on human T cells; assay: flow cytometry on human CD8+ T cells, titration; remark: listed apart in the source
Experimental: (§4) The 24 humanized 02A01-derived anti-CD8 antibodies (excluding 02A01-VK3(D30E/N35Q)) were screened for their ability to bind human CD8 by evaluating binding to CD8+ T cells. The non-humanized parent (“02-Parent”) and the non-humanized parent comprising a heavy chain M39L liability mutation (“02-Parent-VH-M39L”) were used as controls. […] Cells were washed with 1×phosphate buffered saline (PBS) containing 1 mg/mL bovine serum albumin (PBS/BSA) and then stained with a 1:100 dilution of DyLight650-conjugated anti-human IgG H+L polyclonal antibody (ThermoFisher cat. no. Sa5-10129) in PBS/BSA. Following a 20-30 min incubation at 4° C., the cells were washed once with PBS/BSA, and then resuspended in PBS/BSA for analysis on a FACSCelesta using Diva software (BD Biosciences). The resulting data were analyzed using FlowJo. Data were quantified and reported as Max fluorescence intensity (MFI) of human IgG-Fc. […] Complete replacement of the HCDR1 (antibodies comprising VH5) eliminated binding to the CD8+ T cells.
(§5) Binding to human CD8+ T cells was tested at 7 serial 5-fold dilutions of each tested humanized 02A01 variant (from 50 nM to 3.2 pM). The resulting data were analyzed using FlowJo.

[5] = target: T2, human CD8α/β; assay: SPR, antibody captured on Protein A chip, hCD8α/β as analyte, 1:1 fit
Experimental: as §3

[6] = target: T1, human CD8 on human T cells; assay: flow cytometry on human CD8+ T cells, titration, apparent KD; remark: listed apart in the source
Experimental: as §4, §5

[7] = target: T1, human CD8 on human T cells; assay: cell-based or functional assay

T1 sequence (P01732 22-235): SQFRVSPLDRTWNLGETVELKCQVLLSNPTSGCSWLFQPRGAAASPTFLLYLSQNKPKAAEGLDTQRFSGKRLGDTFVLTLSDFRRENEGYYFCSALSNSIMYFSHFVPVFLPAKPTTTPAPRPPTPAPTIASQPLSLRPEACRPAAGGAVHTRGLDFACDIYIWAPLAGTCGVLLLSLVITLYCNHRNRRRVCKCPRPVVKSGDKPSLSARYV
T2 sequence (P01732 22-182, chain 1 of 2): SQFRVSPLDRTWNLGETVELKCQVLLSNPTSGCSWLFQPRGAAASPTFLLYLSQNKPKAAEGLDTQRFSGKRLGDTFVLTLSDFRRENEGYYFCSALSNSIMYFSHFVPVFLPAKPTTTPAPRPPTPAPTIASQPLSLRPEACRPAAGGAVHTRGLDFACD
T2 sequence (P10966 22-170, chain 2 of 2): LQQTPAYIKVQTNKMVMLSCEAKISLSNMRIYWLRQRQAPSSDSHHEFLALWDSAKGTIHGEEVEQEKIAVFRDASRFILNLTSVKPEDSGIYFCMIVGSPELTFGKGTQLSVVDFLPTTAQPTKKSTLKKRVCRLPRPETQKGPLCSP

B1: humanized 03A01-VH2-VK2 (antibody, human IgG1, V domains shown)
VH: EVQFQESGPGLVKPSQTLSLTCTVSGYSITSDFAWNWIRQPPGKGLEWMGYISYSGDTNYNPSLRSRITISRDTSKNQFSLKLSSVTAADTAVYYCTIRGYYTDSAFVFWGQGTLVTVSS
VL: DIQMTQSPSTLSVSVGDRVTITCKASDHINNWLAWYQQKPGKAPKLLISGATSLETGVPSRFSGSGSGLEYTLTISSLQPDDFATYYCQQYWNSPFTFGQGTKLEIK
notes: human IgG1 format; also called 03-VH2/VK2
Fold Change to Parental Apparent KD [1]: 2 fold
Kd [2]: 1.84 nM

B2: humanized 03A01-VH2-VK3 (antibody, human IgG1, V domains shown)
VH: EVQFQESGPGLVKPSQTLSLTCTVSGYSITSDFAWNWIRQPPGKGLEWMGYISYSGDTNYNPSLRSRITISRDTSKNQFSLKLSSVTAADTAVYYCTIRGYYTDSAFVFWGQGTLVTVSS
VL: DIQMTQSPSTLSASVGDRVTITCKASDHINNWLAWYQQKPGKAPKLLISGATSLETGVPSRFSGSGSGLEYTLTISSLQPDDFATYYCQQYWNSPFTFGQGTKLEIK
notes: human IgG1 format; also called 03-VH2/VK3
Fold Change to Parental Apparent KD [1]: 2.1 fold
Kd [2]: 1.91 nM

B3: humanized 03A01-VH1-VK3 (antibody, human IgG1, V domains shown)
VH: EVQFQESGPGLVKPSQTLSLTCTVTGYSITSDFAWNWIRQPPGKELEWMGYISYSGDTNYNPSLRSRITISRDTSKNQFSLKLSSVTAADTATYYCTIRGYYTDSAFVFWGQGTLVTVSS
VL: DIQMTQSPSTLSASVGDRVTITCKASDHINNWLAWYQQKPGKAPKLLISGATSLETGVPSRFSGSGSGLEYTLTISSLQPDDFATYYCQQYWNSPFTFGQGTKLEIK
notes: human IgG1 format; also called 03-VH1/VK3
Fold Change to Parental Apparent KD [1]: 1.7 fold
Kd [2]: 1.6 nM

B4: humanized 02A01-VH4-VK2 (antibody, human IgG1, V domains shown)
VH: EVQLVQSGAEVKKPGATVKISCKASGYTFTDFTMHWVQQAPGKGLEWIGLVNPNNGGNIYAEKFQGRATLTVDTSTSTAYMELSSLRSEDTAVYYCGRVPLYTSHGMDYWGQGTLVTVSS
VL: EIVLTQSPATLSVSPGERATISCRASESVDSYDINSMHWYQQKPGQAPRLLIYRASHLQSGIPARFSGSGSRTDFTLTISSVEPEDFATYYCQQSNEDPLTFGQGTKLEIK
notes: human IgG1 format; also called 02-VH4/VK2
Fold Change to Parental Calculated KD [3]: 2.1 fold
Fold Change to Parental Apparent KD [4]: 1.14 fold
Maximum CD8+ T cell Binding (MFI) [4]: 2680 MFI
Kd [5]: 19.5 nM
Kd [6]: 0.065 nM

B5: humanized 02A01-VH6-VK2 (antibody, human IgG1, V domains shown)
VH: EVQLVQSGAEVKKPGATVKISCKASGYTFTDFTMHWVQQAPGKGLEWIGLVNPNNGGNIYAEKFQGRVTLTVDTSTSTAYMELSSLRSEDTAVYYCGRVPLYTSHGMDYWGQGTLVTVSS
VL: EIVLTQSPATLSVSPGERATISCRASESVDSYDINSMHWYQQKPGQAPRLLIYRASHLQSGIPARFSGSGSRTDFTLTISSVEPEDFATYYCQQSNEDPLTFGQGTKLEIK
notes: human IgG1 format; also called 02-VH6/VK2
Fold Change to Parental Calculated KD [3]: 1.79 fold
Fold Change to Parental Apparent KD [4]: 1.68 fold
Maximum CD8+ T cell Binding (MFI) [4]: 2770 MFI
Kd [5]: 16.6 nM
Kd [6]: 0.096 nM

B6: humanized 02A01-VH6-VK3 (antibody, human IgG1, V domains shown)
VH: EVQLVQSGAEVKKPGATVKISCKASGYTFTDFTMHWVQQAPGKGLEWIGLVNPNNGGNIYAEKFQGRVTLTVDTSTSTAYMELSSLRSEDTAVYYCGRVPLYTSHGMDYWGQGTLVTVSS
VL: EIVLTQSPATLSLSPGERATISCRASESVDSYDINSMHWYQQKPGQAPRLLIYRASHLQSGIPARFSGSGSRTDFTLTISSLEPEDFATYYCQQSNEDPLTFGQGTKLEIK
notes: human IgG1 format; also called 02-VH6/VK3
Fold Change to Parental Calculated KD [3]: 2.12 fold
Fold Change to Parental Apparent KD [4]: 1.51 fold
Maximum CD8+ T cell Binding (MFI) [4]: 2540 MFI
Kd [5]: 19.6 nM
Kd [6]: 0.089 nM

B7: humanized 02A01-VH6-VK1 (antibody, human IgG1, V domains shown)
VH: EVQLVQSGAEVKKPGATVKISCKASGYTFTDFTMHWVQQAPGKGLEWIGLVNPNNGGNIYAEKFQGRVTLTVDTSTSTAYMELSSLRSEDTAVYYCGRVPLYTSHGMDYWGQGTLVTVSS
VL: EIVLTQSPATLSVSPGERATISCRASESVDSYDINSMHWYQQKPGQPPRLLIYRASHLQSGIPARFSGSGSRTDFTLTISSVEPEDFATYYCQQSNEDPLTFGQGTKLEIK
notes: human IgG1 format; also called 02-VH6/VK1
Fold Change to Parental Calculated KD [3]: 1.71 fold
Fold Change to Parental Apparent KD [4]: 1.02 fold
Maximum CD8+ T cell Binding (MFI) [4]: 2620 MFI
Kd [5]: 15.9 nM
Kd [6]: 0.058 nM

B8: humanized 02A01-VH3-VK3 (antibody, human IgG1, V domains shown)
VH: EVQLVQSGAEVKKPGATLKISCKASGYTFTDFTMHWVQQAPGKGLEWIGLVNPNNGGNIYAEKFQGRATLTVDTSTSTAYMELSSLRSEDTSVYYCGRVPLYTSHGMDYWGQGTLVTVSS
VL: EIVLTQSPATLSLSPGERATISCRASESVDSYDINSMHWYQQKPGQAPRLLIYRASHLQSGIPARFSGSGSRTDFTLTISSLEPEDFATYYCQQSNEDPLTFGQGTKLEIK
notes: human IgG1 format; also called 02-VH3/VK3
Fold Change to Parental Calculated KD [3]: 2.37 fold
Fold Change to Parental Apparent KD [4]: 1.58 fold
Maximum CD8+ T cell Binding (MFI) [4]: 2540 MFI
Kd [5]: 22 nM
Kd [6]: 0.09 nM

B9: humanized 02A01-VH4-VK3 (antibody, human IgG1, V domains shown)
VH: EVQLVQSGAEVKKPGATVKISCKASGYTFTDFTMHWVQQAPGKGLEWIGLVNPNNGGNIYAEKFQGRATLTVDTSTSTAYMELSSLRSEDTAVYYCGRVPLYTSHGMDYWGQGTLVTVSS
VL: EIVLTQSPATLSLSPGERATISCRASESVDSYDINSMHWYQQKPGQAPRLLIYRASHLQSGIPARFSGSGSRTDFTLTISSLEPEDFATYYCQQSNEDPLTFGQGTKLEIK
notes: human IgG1 format; also called 02-VH4/VK3
Fold Change to Parental Calculated KD [3]: 2.13 fold
Fold Change to Parental Apparent KD [4]: 1.56 fold
Maximum CD8+ T cell Binding (MFI) [4]: 2620 MFI
Kd [5]: 19.8 nM
Kd [6]: 0.089 nM

B10: 02A01-Fab-Fc-IL12 (LC) (other)
VH: EVQLQQSGPELVKPGASLKISCKASGYTFTDFTMHWVKQSHGKSLEWIGLVNPNNGGNIYNQNFKGKATLTVDTSSSTAYMELRSLTSEDSSVYYCGRVPLYTSHGMDYWGQGTSVTVSS
VL: DIVLTQSPAFLAVSLGQRATISCRASESVDSYDINSMHWYQQKPGQPPKLLIYRASHLQSGIPARFSGSGSRTDFTLTINFVEADDVATYYCQQSNEDPLTFGAGTKLELK
EC50 of pSTAT4 signaling in human CD8+ T cells [7]: 2.11 pM

B11: 03A01-Fab-IL12 (LC) (other)
VH: DVQFQESGPGLVKPSQSLSLTCTVTGYSITSDFAWNWIRQFPGNELEWMGYISYSGDTNYNPSLRSRISITRDTSKNQFFLQLDSVTTEDTATYYCTIRGYYTDSAFVFWGQGTLVTVSA
VL: DIQMTQSSSYLSVSLGGRVTITCKASDHINNWLAWYQQKPGNAPRLLISGATSLETGVPSRFTGSGSGLDYTLSITSLQTEDVATYYCQQYWNSPFTFGSGTKLEIK
EC50 of pSTAT4 signaling in human CD8+ T cells [7]: 11.1 pM

B12: 03A01-Fab-Fc-IL12 (LC) (other)
VH: DVQFQESGPGLVKPSQSLSLTCTVTGYSITSDFAWNWIRQFPGNELEWMGYISYSGDTNYNPSLRSRISITRDTSKNQFFLQLDSVTTEDTATYYCTIRGYYTDSAFVFWGQGTLVTVSA
VL: DIQMTQSSSYLSVSLGGRVTITCKASDHINNWLAWYQQKPGNAPRLLISGATSLETGVPSRFTGSGSGLDYTLSITSLQTEDVATYYCQQYWNSPFTFGSGTKLEIK
EC50 of pSTAT4 signaling in human CD8+ T cells [7]: 13.4 pM
